In patent US20140286957A1 (Teva, published 2014):

Legend:
Human CD1d/β2M [1] = biological target: T1, Human CD1d/β2M (human, UniProt P15813 20-301; P61769 21-119); assay: direct ELISA, plate coated with 1 µg/mL human CD1d, HRP anti-human kappa detection
T1 construct: also called hCD1d; recombinant human CD1d

Human CD1d on cells [2] = biological target: T2, Human CD1d on cells (human, UniProt P15813 20-335); assay: cell-based or functional assay
T2 sequence (looked up): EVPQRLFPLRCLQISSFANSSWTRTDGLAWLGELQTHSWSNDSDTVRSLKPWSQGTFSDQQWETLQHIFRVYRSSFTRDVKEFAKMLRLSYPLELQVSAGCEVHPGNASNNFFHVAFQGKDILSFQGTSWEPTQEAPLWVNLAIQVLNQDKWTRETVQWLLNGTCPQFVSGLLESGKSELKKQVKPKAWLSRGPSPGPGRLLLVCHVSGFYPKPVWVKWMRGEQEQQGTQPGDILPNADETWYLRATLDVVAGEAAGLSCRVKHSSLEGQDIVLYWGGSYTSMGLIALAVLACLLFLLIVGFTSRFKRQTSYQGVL

Human CD1d on cells [3] = biological target: T2, Human CD1d on cells; assay: cell-based or functional assay; remark: listed apart in the source
[4] = biological target: T3, CD1d tetramer loaded with α-GalCer (ProImmune) (UniProt P15813 20-301, limits assumed); assay: flow cytometry, inhibition of CD1d tetramer (10 nM) binding to NKTCR on J.RT3-T3.5 cells
T3 construct: Bought reagent; also called fluorochrome-conjugated CD1d tetramer
T3 sequence (looked up): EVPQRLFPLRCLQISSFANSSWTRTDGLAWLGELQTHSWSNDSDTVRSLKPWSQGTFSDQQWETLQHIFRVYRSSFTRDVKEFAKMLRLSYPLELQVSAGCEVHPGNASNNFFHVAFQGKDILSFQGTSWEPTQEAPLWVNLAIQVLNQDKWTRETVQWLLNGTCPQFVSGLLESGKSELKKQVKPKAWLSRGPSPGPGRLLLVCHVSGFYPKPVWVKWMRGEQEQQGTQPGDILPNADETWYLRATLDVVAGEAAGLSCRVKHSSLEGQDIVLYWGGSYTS
Protocol: To perform the assay, antibodies were prepared at decreasing concentrations from 10 μg/mL in 0.1% bovine serum albumin (BSA) in cold 1×PBS at pH 7.4. […] Wash steps were done in 0.1% BSA in 1×PBS. Data were acquired by flow cytometry and analyzed using flow cytometry analysis software (FlowJo® Treestar, Inc.).

Human CD1d on cells [5] = biological target: T2, Human CD1d on cells; assay: cell-based or functional assay; remark: listed apart in the source
mCD1dhu = biological target: T4, mCD1dhu (mouse with human segments); assay: direct ELISA, plate coated with 1 µg/mL CD1d construct, HRP anti-human IgG (H+L) detection
T4 chain: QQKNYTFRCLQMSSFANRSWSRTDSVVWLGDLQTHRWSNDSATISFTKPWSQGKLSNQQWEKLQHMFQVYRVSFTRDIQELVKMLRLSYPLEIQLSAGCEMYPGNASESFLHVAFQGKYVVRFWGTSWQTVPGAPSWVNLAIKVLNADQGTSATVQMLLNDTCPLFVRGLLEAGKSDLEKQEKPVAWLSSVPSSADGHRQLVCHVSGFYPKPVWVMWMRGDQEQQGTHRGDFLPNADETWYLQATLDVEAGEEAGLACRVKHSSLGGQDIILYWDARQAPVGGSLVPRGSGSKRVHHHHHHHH

Human CD1d/β2M [6] = biological target: T1, Human CD1d/β2M; assay: as above
hCD1dmu = biological target: T5, hCD1dmu (human with mouse segments); assay: as above
T5 chain: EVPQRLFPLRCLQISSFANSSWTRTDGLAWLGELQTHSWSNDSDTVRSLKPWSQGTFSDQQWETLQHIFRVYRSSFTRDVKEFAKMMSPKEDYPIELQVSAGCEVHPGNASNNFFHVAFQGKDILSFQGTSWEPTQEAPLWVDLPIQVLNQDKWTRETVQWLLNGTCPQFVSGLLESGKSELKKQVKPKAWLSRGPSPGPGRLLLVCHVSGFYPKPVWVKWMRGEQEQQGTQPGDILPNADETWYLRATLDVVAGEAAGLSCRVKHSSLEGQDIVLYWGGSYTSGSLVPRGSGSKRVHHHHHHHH

Mouse CD1d = biological target: T6, Mouse CD1d (mouse, UniProt P11609 22-305); assay: as above
T6 construct: Murine CD1d extracellular domain construct, HEK-293E; also called mCD1d; murine CD1d
T6 sequence: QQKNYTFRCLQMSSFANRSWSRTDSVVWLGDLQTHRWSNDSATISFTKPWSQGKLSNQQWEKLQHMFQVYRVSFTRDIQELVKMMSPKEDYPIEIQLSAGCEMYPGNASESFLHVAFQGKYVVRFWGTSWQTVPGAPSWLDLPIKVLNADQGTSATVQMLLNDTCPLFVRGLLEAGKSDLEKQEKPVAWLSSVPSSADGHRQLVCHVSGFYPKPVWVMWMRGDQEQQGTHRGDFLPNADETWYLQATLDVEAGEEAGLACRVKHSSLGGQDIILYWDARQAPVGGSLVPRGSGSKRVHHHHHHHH

Human CD1d on cells [7] = biological target: T2, Human CD1d on cells; assay: cell-based or functional assay; remark: listed apart in the source
[8] = biological target: Cynomolgus macaque CD1d on cells (cynomolgus macaque); assay: flow cytometry, biotinylated antibody and streptavidin-PE on cynomolgus PBMC, gated live cells
Human CD1d/β2M [9] = biological target: T1, Human CD1d/β2M; assay: SPR, Protein A purified IgG
Human CD1d/β2M [10] = biological target: T1, Human CD1d/β2M; assay: SPR, IgG captured, CD1d/β2M analyte
Protocol: Purified antibodies were also subjected to full kinetic characterization using a BIACORE™ T100 biosensor (GE Healthcare). Approximately 10,000 RU of anti-human IgG (Invitrogen cat# H10500) was immobilized on a CM5 Series S Sensor chip, using standard amine coupling chemistry in flow cell (FC) 1 and FC2 (or alternatively FC3 and FC4) of the BIACORE™ T100 Biosensor. The running buffer used was HBS-EP-1-(GE Healthcare) and interactions measured at 25° C. Peak purified IgGs were diluted to 10 nM in running buffer, and captured on FC2 (or alternatively FC4) at a flow rate of 10 μL/min in order to capture 50-80 RU of IgG. […] The contact time for association was 120 sec and dissociation measured for 20 mins for the highest concentration and 240 sec for all other concentrations in the series. The sensorgram data from FC2 was subtracted from FC1 and a buffer only control.

Human CD1d on cells [11] = biological target: T2, Human CD1d on cells; assay: cell-based or functional assay; remark: listed apart in the source
Human CD1d on cells [12] = biological target: T2, Human CD1d on cells; assay: cell-based or functional assay; remark: listed apart in the source

B1: FAb 401.11.165 (Fab, V domains shown)
VH: EVQLVESGGGLVQPGRSLRLSCAASGFTFDDYAMHWVRQAPGKGLEWVATIIWNSAIIGYADSVKGRFIVSRDNAKNSLYLQMNSLRAEDTALYYCAKDMCSSGGCPDGYFDSWGQGTLVTVSS
VL: DIQMTQSPSSVSASVGDRVTITCRASQHISSWLAWYQQKPGKAPKLLIYAASSLQSGVPSRFSGSGSGTDFTLTISSLQPEDFATYYCQQANRFPLTFGGGTKLEIKR
notes: Made by papain digest of the IgG4
B1 was tested, and the “EC50 (read off the curve)” value (Human CD1d/β2M [1]) was ~60 ng/mL.

B2: 402.8 (antibody, V domains shown)
VH: QVQLQESGPGLVRPSETLSLTCAVYGGSFSGYYWSWIRQPPGKGLEWIGEINHSGSTNYNPSLKSRVTISVDTSKNQFSLKLSSVTAADTAVYYCARGEIYDFWNSYMDVWGKGTTVTVSS
VL: QTVVTQEPSLTVSPGGTVTLTCASSSGAVSSGNFPNWFQQKPGQAPRALIFSASNKHSWTPARFSGSLLGGKAVLTLSGVQPEDEAEYYCLLYFGDTQLGVFGGGTKVTVLG
notes: Human IgG4 (S228P); biotinylated or Pacific Blue labelled in some assays
B2 was tested, and the “IFN-γ EC50 (C24:1 βGluCer, moDC)” value (Human CD1d on cells [2]) was 0.995 ng/mL, the “IL-4 EC50 (C24:1 βGluCer, moDC)” value (Human CD1d on cells [2]) was 0.636 ng/mL and the “IL-5 EC50 (C24:1 βGluCer, moDC)” value (Human CD1d on cells [2]) was 0.929 ng/mL. The “IL-13 EC50 (C24:1 βGluCer, moDC)” value (Human CD1d on cells [2]) was 2.94 ng/mL, the “TNF-α EC50 (C24:1 βGluCer, moDC)” value (Human CD1d on cells [2]) was 1.51 ng/mL and the “IFN-γ EC50 (primary CD14+ cells)” value (Human CD1d on cells [3]) was 28.6 ng/mL. For the same binder, the “IL-4 EC50 (primary CD14+ cells)” value (Human CD1d on cells [3]) was 4 ng/mL, the “IL-5 EC50 (primary CD14+ cells)” value (Human CD1d on cells [3]) was 6.9 ng/mL and the “IL-13 EC50 (primary CD14+ cells)” value (Human CD1d on cells [3]) was 39.9 ng/mL. For the same binder, the EC50 [4] was 165 ng/mL, the “IL-2 release EC50 (U-937 + NKTCR cell line)” value (Human CD1d on cells [5]) was 4.5 ng/mL and the “EC50 (read off the curve)” value (mCD1dhu) was ~5 ng/mL. For the same binder, the “EC50 (read off the curve)” value (Human CD1d/β2M [6]) was ~6 ng/mL, the binding result (hCD1dmu) was “no binding (tested: 10 µg/mL)” and the binding result (Mouse CD1d) was “no binding (tested: 10 µg/mL)”. For the same binder, the “NKT IFN-γ EC50 (moDC)” value (Human CD1d on cells [7]) was 0.105 ng/mL, the “NKT IL-13 EC50 (moDC)” value (Human CD1d on cells [7]) was 0.154 ng/mL and the percent CD1d-positive cells, Donor 1 [8] was 81.3%. The percent CD1d-positive cells, Donor 2 [8] was 64%, the Kd (Human CD1d/β2M [9]) was 0.145 nM and the Kd (Human CD1d/β2M [10]) was 0.304 nM. For the same binder, the koff (Human CD1d/β2M [10]) was 0.000161 s⁻¹, the kon (Human CD1d/β2M [10]) was 530000 M⁻¹ s⁻¹ and the “IFN-γ EC50 (THP-1)” value (Human CD1d on cells [11]) was 2.4 ng/mL. The “IL-4 EC50 (THP-1)” value (Human CD1d on cells [11]) was 1.7 ng/mL, the “IL-5 EC50 (THP-1)” value (Human CD1d on cells [11]) was 1.2 ng/mL and the “IL-13 EC50 (THP-1)” value (Human CD1d on cells [11]) was 1.5 ng/mL. For the same binder, the “fold potency against 51.1, IL-2 release” value (Human CD1d on cells [12]) was ~17 fold, the “fold potency against antibody 42 (C24:1 βGluCer)” value (Human CD1d on cells [12]) was ≤ 139 fold and the “fold potency against antibody 42 (THP-1 assay)” value (Human CD1d on cells [12]) was ≤ 180 fold. The “fold potency against antibody 42 (moDC assay)” value (Human CD1d on cells [12]) was ≤ 50 fold, the “fold potency against antibody 42, IL-2 release” value (Human CD1d on cells [12]) was ~25 fold and the “fold potency against antibody 51.1 (C24:1 βGluCer)” value (Human CD1d on cells [12]) was ≤ 112 fold.
